Broadly, the Kd is a measure of binding affinity in units of concentration.

Several values for one entry are separate records, joined by “and”; a condition that tells them apart may be missing. Identical values can stand only once. Like-named read-outs stand apart in the source and are kept apart here.

Data on two molecules can be found in patent US8557762 (CHILDREN S HOSPITAL OF PHILADELPHIA, dated 2013).

Assay [1] deals with T1, recombinant venom-derived factor V from Pseudonaja textilis (pt-rFV) (Pseudonaja textilis, UniProt Q7SZN0 31-1460).
T1 construct: mature
T1 sequence: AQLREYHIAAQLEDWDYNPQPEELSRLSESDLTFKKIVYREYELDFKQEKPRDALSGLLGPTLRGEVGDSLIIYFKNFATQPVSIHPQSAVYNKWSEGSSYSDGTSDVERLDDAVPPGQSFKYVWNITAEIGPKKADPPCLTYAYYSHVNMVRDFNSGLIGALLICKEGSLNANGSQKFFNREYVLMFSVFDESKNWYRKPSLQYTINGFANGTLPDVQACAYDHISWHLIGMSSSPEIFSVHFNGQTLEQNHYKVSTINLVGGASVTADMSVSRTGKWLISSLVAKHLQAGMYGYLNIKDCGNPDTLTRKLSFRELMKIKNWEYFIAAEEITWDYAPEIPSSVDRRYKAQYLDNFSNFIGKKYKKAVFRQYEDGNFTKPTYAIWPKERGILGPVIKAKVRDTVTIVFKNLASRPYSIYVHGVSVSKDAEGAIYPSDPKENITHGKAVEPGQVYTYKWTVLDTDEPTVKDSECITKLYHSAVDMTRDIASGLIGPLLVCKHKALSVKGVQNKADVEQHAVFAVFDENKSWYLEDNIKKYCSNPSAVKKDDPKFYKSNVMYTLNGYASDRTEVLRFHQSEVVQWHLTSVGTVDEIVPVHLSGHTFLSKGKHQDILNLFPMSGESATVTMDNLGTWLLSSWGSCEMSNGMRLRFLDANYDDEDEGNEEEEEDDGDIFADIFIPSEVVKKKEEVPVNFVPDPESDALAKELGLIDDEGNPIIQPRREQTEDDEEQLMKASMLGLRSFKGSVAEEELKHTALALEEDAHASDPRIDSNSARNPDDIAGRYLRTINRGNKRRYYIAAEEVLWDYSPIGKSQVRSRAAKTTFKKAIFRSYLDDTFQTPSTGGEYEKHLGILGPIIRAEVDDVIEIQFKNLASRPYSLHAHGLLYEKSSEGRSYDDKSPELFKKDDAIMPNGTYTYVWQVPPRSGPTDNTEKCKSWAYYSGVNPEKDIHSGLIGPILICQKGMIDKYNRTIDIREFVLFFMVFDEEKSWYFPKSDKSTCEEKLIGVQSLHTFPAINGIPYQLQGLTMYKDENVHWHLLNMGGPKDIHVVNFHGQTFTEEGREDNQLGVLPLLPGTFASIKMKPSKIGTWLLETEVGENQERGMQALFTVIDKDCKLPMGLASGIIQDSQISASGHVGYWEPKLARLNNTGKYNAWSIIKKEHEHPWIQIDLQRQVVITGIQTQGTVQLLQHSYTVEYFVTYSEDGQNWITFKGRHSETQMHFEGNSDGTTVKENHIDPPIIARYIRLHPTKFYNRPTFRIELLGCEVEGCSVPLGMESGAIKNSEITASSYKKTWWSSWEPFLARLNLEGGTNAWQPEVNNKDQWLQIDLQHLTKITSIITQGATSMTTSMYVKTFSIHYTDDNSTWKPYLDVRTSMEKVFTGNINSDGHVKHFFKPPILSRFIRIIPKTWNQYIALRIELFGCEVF
Put plainly: fluorescent binding measurements, membrane-bound human FXa (data not shown).

The target in assay [2] is T2, pt-rFVa (pt-rFV processed by thrombin) (Pseudonaja textilis, UniProt Q7SZN0 31-772; Q7SZN0 819-1460).
T2 sequence (heavy): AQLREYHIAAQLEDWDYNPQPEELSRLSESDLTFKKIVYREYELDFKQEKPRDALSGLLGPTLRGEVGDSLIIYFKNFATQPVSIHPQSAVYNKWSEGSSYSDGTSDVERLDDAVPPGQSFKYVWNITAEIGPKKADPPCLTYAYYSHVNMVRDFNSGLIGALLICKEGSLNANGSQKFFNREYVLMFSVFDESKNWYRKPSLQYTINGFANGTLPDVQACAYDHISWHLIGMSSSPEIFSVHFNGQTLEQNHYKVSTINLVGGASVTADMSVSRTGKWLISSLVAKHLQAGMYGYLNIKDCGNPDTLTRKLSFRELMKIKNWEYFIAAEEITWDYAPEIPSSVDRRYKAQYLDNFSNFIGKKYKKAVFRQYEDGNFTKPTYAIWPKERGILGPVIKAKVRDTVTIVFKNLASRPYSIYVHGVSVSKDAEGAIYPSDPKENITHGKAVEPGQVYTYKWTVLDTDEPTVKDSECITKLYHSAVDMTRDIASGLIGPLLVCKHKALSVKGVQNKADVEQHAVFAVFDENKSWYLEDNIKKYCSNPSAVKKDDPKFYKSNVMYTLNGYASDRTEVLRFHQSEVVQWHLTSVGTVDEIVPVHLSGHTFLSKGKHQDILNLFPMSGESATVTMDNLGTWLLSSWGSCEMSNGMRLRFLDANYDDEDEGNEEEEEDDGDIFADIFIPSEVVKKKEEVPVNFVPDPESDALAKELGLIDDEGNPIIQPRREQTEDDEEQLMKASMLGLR
T2 sequence (light): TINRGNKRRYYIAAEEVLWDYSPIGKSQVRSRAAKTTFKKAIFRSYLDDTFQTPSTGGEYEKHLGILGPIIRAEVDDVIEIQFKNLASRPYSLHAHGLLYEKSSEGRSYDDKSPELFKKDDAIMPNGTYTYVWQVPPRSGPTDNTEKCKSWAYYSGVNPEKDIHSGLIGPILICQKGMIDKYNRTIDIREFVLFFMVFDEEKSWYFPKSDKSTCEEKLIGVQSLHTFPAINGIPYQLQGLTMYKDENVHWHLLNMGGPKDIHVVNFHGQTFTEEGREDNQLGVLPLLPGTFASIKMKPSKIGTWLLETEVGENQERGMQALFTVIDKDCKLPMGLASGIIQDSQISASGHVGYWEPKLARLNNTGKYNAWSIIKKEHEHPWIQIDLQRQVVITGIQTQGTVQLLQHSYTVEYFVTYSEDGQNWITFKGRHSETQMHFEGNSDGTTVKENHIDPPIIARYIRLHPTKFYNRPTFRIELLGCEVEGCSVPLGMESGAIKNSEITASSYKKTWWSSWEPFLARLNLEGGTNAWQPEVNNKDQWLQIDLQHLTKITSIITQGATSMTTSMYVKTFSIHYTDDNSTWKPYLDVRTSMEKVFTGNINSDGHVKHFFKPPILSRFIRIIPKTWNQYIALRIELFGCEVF
Described as above.

Assay [3] deals with T1, recombinant venom-derived factor V from ….
In assay [4] the target is hFV-810 (constitutively active partial B-domainless form of human FV) (human, UniProt P12259 29-2224).
Assay [5] has as its target T2, pt-rFVa (pt-rFV processed by thrombin).

Sequence of hFV-810 (constitutively active partial B-domainless form of human FV) (P12259 other isoform, or with tags, fused parts or gaps limits assumed): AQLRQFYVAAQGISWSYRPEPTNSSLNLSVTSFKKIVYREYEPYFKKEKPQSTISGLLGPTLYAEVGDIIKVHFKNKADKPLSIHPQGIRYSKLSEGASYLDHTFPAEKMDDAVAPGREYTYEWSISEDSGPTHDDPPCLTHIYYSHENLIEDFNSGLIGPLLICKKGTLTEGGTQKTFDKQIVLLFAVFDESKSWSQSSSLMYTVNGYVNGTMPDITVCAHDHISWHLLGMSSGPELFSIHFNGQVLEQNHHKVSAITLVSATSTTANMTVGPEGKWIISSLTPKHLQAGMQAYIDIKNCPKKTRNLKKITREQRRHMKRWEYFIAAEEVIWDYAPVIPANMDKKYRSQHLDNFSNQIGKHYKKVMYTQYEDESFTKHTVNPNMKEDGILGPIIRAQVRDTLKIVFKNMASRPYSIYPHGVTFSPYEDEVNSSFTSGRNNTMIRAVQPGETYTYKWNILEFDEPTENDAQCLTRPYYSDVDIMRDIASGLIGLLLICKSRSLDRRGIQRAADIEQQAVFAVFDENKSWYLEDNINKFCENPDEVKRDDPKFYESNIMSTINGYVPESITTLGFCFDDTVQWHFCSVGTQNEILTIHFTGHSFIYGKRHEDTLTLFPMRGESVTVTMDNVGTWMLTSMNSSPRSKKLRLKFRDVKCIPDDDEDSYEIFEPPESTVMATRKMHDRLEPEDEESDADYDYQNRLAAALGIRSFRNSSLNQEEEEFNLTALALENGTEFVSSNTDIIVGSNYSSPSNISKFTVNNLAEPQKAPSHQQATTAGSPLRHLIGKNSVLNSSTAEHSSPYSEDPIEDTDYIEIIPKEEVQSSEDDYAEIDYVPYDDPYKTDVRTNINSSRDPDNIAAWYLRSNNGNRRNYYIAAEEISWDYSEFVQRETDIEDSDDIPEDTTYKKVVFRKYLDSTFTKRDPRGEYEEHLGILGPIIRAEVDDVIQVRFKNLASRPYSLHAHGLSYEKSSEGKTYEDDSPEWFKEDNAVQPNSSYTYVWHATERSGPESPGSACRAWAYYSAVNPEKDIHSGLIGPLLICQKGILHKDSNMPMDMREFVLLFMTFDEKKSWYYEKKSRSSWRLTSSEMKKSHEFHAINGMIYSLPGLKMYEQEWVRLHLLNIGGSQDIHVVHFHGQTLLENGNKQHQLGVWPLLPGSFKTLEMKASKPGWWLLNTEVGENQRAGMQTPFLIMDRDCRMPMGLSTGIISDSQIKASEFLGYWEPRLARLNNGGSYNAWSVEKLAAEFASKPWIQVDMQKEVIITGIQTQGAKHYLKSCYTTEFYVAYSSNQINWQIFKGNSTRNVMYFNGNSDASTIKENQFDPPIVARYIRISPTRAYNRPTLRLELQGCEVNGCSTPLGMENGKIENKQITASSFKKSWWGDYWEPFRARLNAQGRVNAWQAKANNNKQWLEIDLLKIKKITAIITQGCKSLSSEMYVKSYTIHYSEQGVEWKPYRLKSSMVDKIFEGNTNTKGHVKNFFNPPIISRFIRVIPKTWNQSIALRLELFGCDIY

B1: human factor Xa (membrane-bound human FXa) (enzyme)
chain 1: ANSFLEEMKKGHLERECMEETCSYEEAREVFEDSDKTNEFWNKYKDGDQCETSPCQNQGKCKDGLGEYTCTCLEGFEGKNCELFTRKLCSLDNGDCDQFCHEEQNSVVCSCARGYTLADNGKACIPTGPYPCGKQTLER
chain 2: IVGGQECKDGECPWQALLINEENEGFCGGTILSEFYILTAAHCLYQAKRFKVRVGDRNTEQEEGGEAVHEVEVVIKHNRFTKETYDFDIAVLRLKTPITFRMNVAPACLPERDWAESTLMTQKTGIVSGFGRTHEKGRQSTRLKMLEVPYVDRNSCKLSSSFIITQNMFCAGYDTKQEDACQGDSGGPHVTRFKDTYFVTGIVSWGEGCARKGKYGIYTKVTAFLKWIDRSMKTRGLPKAKSHAPEVITSSPLK
notes: also called rFXa; human rFXa
As to B1, the Kd in assay [1] and in assay [2] was over 400 nM in each case.

B2: purified enzymatic subunit of pseutarin C (pt-FXa) (enzyme)
chain 1: ANSLVEEFKSGNIERECIEERCSKEEAREVFEDDEKTETFWNVYVDGDQCSSNPCHYRGICKDGIGSYTCTCLSGYEGKNCERVLYKSCRVDNGNCWHFCKSVQNDIQCSCAEGYLLGEDGHSCVAGGNFSCGRNIKTRNK
chain 2: IVNGMDCKLGECPWQAALVDDKKGVFCGGTILSPIYVLTAAHCINETETISVVVGEIDRSRAETGPLLSVDKVYVHKKFVPPKKSQEFYEKFDLVSYDYDIAIIQMKTPIQFSENVVPACLPTADFANQVLMKQDFGIVSGFGGIFERGPNSKTLKVLKVPYVDRHTCMLSSNFPITPTMFCAGYDTLPQDACQGDSGGPHITAYRDTHFITGIVSWGEGCARKGRYGIYTKLSKFIPWIKRIMRQKLPSTESSTGRL
On to B2, for which the dissociation constant (Kd) was 3.06 nM and 8.08 nM in assay [3]; 3.76 nM in assay [4]; 3.84 nM and 7.54 nM in assay [5].
